Measurements: patent publication US9730980B2

Target: NR1D1 (pCDNA-Nr1d1 expression vector)

Substance: r-h-apoA-IV
- luciferase activity driven by the human G6pase promoter: 14.5%
